According to patent US20140147456A1 (AFFIRIS, published 2014):

T1: recombinantly expressed human CETP N-terminally fused to GST (human, UniProt P11597 18-493, limits assumed)
T1 construct: coated antigen of the protein ELISA; also called GST-CETP; CETP protein; not shown: GST (Glutathione-S-transferase) tag at the N-terminus
T1 sequence (looked up): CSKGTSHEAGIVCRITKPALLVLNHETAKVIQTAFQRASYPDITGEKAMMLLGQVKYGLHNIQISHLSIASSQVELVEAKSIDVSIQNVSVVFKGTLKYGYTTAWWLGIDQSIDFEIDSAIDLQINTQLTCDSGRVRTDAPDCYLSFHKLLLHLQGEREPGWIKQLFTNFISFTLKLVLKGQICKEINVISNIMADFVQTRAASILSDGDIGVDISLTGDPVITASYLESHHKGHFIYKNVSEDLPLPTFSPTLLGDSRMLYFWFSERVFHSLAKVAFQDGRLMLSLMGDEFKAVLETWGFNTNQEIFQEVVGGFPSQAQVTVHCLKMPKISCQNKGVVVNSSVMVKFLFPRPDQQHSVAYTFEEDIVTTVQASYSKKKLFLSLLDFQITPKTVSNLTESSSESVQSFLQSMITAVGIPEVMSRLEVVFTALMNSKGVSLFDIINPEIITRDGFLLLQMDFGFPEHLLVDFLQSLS


Molecular target: T1, recombinantly expressed human CETP …
Test: human CETP protein ELISA, coated protein, antibody titrated

Row | Binder | binding result
1 | monoclonal antibody CJ7-6-B7 (antibody, V domains shown) VH: NVQLQESGPGLVKPSQSLSLTCTVTGHSITSDYAWNWIRQFPGNKLEWMGYITNSGSTTYNPSLKSRISITRDTSKNQFFLQLNSVTTEDTATYYCTRGGPYWGQGTLVTVSA VL: DIVMTQSQKFMSTSVGDRVSITCKASQNVGTAVVWYQQKPGQSPKLLIYSASNRYTGVPDRFTGSGSGTDFTLTITNMQSEDLADYFCQQYSSYPLTFGAGTKLELK | binds
2 | monoclonal antibody 5/C7-6-C8 (antibody, V domains shown) VH: EVQLVESGGGLVEPGGSLKLSCVASGFTFSTYAMSWFRLTPERRLEWVAAISNGGSQNSYPDSVKGRFTVSRDNAKNTLYLQMSSLRSEDTAMYYCSRNGNYFDYWGQGTTLTVSS VL: QIVLTQSPAIMSASPGEKVTMTCSASSSISYMHWYQQKPGTSPKRWIFDTSKLASGVPARFSGSGSGTSYSLTISSMEAEDAATYYCHQRSSYPTFGSGTKLEIK | binds
3 | monoclonal antibody 12/B3-5-B11 (antibody, V domains shown) VH: DVQLQESGPGLVKPSQSLSLTCTVTGYSITSDYAWNWIRQFPGNKLEWMGYISYSGTTTYNPSLKSRISITRHTSKNQFFLQLNSVTTEDSATYYCTRLGYYFDYWGQGTTLTVSS VL: DIVMTQSPASLAMSVGQKVTMNCKSSQSLLSSKNQKNFLAWYQQKPGQSPKVLVYFASTRASGVPDRFIGSGSGTDFTLTISSVQAEDLADYFCQQQYNTPLTFGAGTKLELK | binds
4 | monoclonal antibody BTS4-1 (antibody, V domains shown) VH: QIQLVQSGPELKKPGETVKISCKASGYTFTDCSMHWVKQAPGQGLKWMGWINTKTGEPTYADDFKGRFAFSLETSASTAYLQINILKNEDSATYFCAAHSGKDYAIDYWGQGTSVTVSS VL: DVLMTQTPLSLPVSLGDQASISCRSSQSIVHRNGNTYLEWYLQKPGQSPKLLIYKVSNRFSGVPDRFSGSGSGTDFTLRISRVEAQDLGVYFCFQGSRVPPTFGGGTKLEIK | binds
